From article PMC5715906 (The Journal of General Physiology, 2017)

Molecular target: the molecule itself
Assay: crystal structure

B1: GLIC E−2′I + I9′A double mutant (receptor)
chain: QDMVSPPPPIADEPLTVNTGIYLIECYSLDDKAETFKVNAFLSLSWKDRRLAFDPVRSGVRVKTYEPEAIWIPEIRFVNVENARDADVVDISVSPDGTVQYLERFSARVLSPLDFRRYPFDSQTLHIYLIVRSVDTRNIVLAVDLEKVGKNDDVFLTGWDIESFTAVVKPANFALEDRLESKLDYQLRISRQYFSYIPNIILPMLFILFISWTAFWSTSYIANVTLVVSTLAAHIAFNILVETNLPKTPYMTYTGAIIFMIYLFYFVAVIEVTVQHYLKVESQPARAASITRASRIAFPVVFLLANIILAFLFFGF
For B1, which “stoichiometry N” value is on record?
Its value is 5.
